Assay results from patent US20040018971A1 (published 2004).

Assays:
HLA-A*0301 [1] = target: T1, HLA-A*0301 (human); test: inhibition of 125I-labelled probe peptide binding to purified HLA-A*0301, gel filtration; ratio to standard peptide 941.12 ([..], 11 nM)
T1 construct: also called HLA-A3

HLA-A*1101 [2] = target: HLA-A*1101 (human); test: competition with 125I-labelled probe peptide for purified HLA-A*1101, gel filtration; standard peptide 940.06 [..] (6.0 nM)
HLA-B*0702 = HLA-B*0702 (human); test: competition vs 125I-labeled standard peptide, purified HLA
HLA-B*3501 = HLA-B*3501 (human); test: as above
HLA-B*5301 = HLA-B*5301 (human); test: as above
HLA-B*5101 = HLA-B*5101 (human); test: as above
HLA-B*5401 = HLA-B*5401 (human); test: as above
HLA-A*1101 [3] = target: HLA-A*1101 (human); test: inhibition of 125I-labelled probe peptide binding to purified HLA-A*1101, gel filtration; relative to standard peptide 940.06
HLA-A*3101 = HLA-A*3101 (human); test: inhibition of 125I probe peptide binding to purified HLA
HLA-A*0301 [4] = target: HLA-A*0301 (human); test: as above
HLA-A*6801 = HLA-A*6801 (human); test: as above

| Binder | relative binding ratio (IC50 of standard peptide / IC50 of test peptide) (HLA-A*0301 [1]) | IC50 (HLA-B*0702) [µM] | IC50 (HLA-B*3501) [µM] | IC50 (HLA-B*5301) [µM] | IC50 (HLA-B*5101) [µM] | IC50 (HLA-B*5401) [µM] | other results |
| --- | --- | --- | --- | --- | --- | --- | --- |
| GVGSPYVSR [HER2/neu peptide, position 776, 9 amino acids] | 0.001 |  |  |  |  |  |  |
| GASCVTACPY [HER2/neu peptide, position 292, 10 amino acids] | 0.0003 |  |  |  |  |  |  |
| ILIKRRQQK [HER2/neu peptide, position 673, 9 amino acids] |  |  |  |  |  |  | relative binding ratio (HLA-A*1101 [2]): 0.0097 ratio (IC50 of standard peptide / IC50 of test peptide) |
| GMSYLEDVR [HER2/neu peptide, position 832, 9 amino acids] | -0.0002 |  |  |  |  |  |  |
| FSPAFDNLY [HER2/neu peptide, position 1213, 9 amino acids] | 0.0002 |  |  |  |  |  |  |
| MPNQAQMRILI (11-mer analog of the HER2/neu peptide starting at position 706) [Her2/neu.706.I11] |  | 0.344 | 1.8 | 0.012 | 0.037 | 0.303 |  |
| FPAEQRASPL (10-mer analog of the HER2/neu peptide starting at position 642) [Her2/neu.642.F1] |  | 0.0014 | 0.248 | 8.46 | 0.859 | 0.286 |  |
| QVRQVPLQR (also called HER2/neu 90-98) [HER2/neu A11 motif peptide, position 90, 9 amino acids] |  |  |  |  |  |  | relative binding ratio (HLA-A*1101 [3]): 0.0005 ratio (IC50 of standard peptide / IC50 of test peptide) |
| FPKANKEIL (9-mer analog of the HER2/neu peptide starting at position 760; same label as the 8-mer in r52) [Her2/neu.760.F1, 9-mer] |  | 0.0067 | 4.5 |  | 0.19 | 0.077 |  |
| FSRMARDPQR [HER2/neu peptide, position 976, 10 amino acids] | -0.0002 |  |  |  |  |  |  |
| FPLTSIISI (9-mer analog of the HER2/neu peptide starting at position 649) [Her2/neu.649.F1I9] |  | 0.212 | 0.118 | 0.028 |  | 0.0015 |  |
| FPLTSIISA (9-mer analog of the HER2/neu peptide starting at position 649; same label as the 10-mer in r43) [Her2/neu.649.F1, 9-mer] |  | 0.29 | 0.021 | 3 | 0.663 | 0.0014 |  |
| PLQRLRIVR [HER2/neu A11 motif peptide, position 95, 9 amino acids] |  |  |  |  |  |  | relative binding ratio (HLA-A*1101 [3]): 0.0001 ratio (IC50 of standard peptide / IC50 of test peptide) |
| RTVCAGGCAR (synthetic peptide) [Her2/neu.217] |  |  |  |  |  |  | IC50 (HLA-A*3101): 0.04 µM; IC50 (HLA-A*0301 [4]): 1.62 µM; IC50 (HLA-A*6801): 0.32 µM |
| FPYDGIPA (8-mer analog of the HER2/neu peptide starting at position 921) [Her2/neu.921.F1] |  | 0.423 | 0.206 | 6.2 | 0.157 | 0.001 |  |
| FPYDGIPI (8-mer analog of the HER2/neu peptide starting at position 921) [Her2/neu.921.F1I8] |  | 0.177 | 0.379 | 0.344 | 0.01 | 0.056 |  |
| QALLHTANR (also called HER2/neu 491-499) [HER2/neu A11 motif peptide, position 491, 9 amino acids] |  |  |  |  |  |  | relative binding ratio (HLA-A*1101 [3]): 0.001 ratio (IC50 of standard peptide / IC50 of test peptide) |
| FPSGAMPNQI (the label names only F1 though the C-terminus is I) [Her2/neu.701.F1] |  | 0.229 | 6.55 | 0.775 | 0.131 | 0.1 |  |
| GILIKRRQQK [HER2/neu peptide, position 672, 10 amino acids] | 0.015 |  |  |  |  |  |  |
| MPYGCLLDHVI (11-mer analog of the HER2/neu peptide starting at position 801) [Her2/neu.801.I11] |  | 0.066 | 0.0042 | 0.0019 | 0.0024 | 0.0077 |  |
| GSGAFGTVY [HER2/neu peptide, position 727, 9 amino acids] | 0.0028 |  |  |  |  |  |  |
| GVVFGILIK [HER2/neu peptide, position 668, 9 amino acids] | 0.0047 |  |  |  |  |  |  |
| PSGVKPDLSY (also called HER2/neu 601-610) [HER2/neu A11 motif peptide, position 601, 10 amino acids] |  |  |  |  |  |  | relative binding ratio (HLA-A*1101 [3]): 0.0003 ratio (IC50 of standard peptide / IC50 of test peptide) |
| GTQRCEKCSK [HER2/neu peptide, position 327, 10 amino acids] | 0.021 |  |  |  |  |  |  |
| QLVTQLMPY (also called HER2/neu 795-803) [HER2/neu A11 motif peptide, position 795, 9 amino acids] |  |  |  |  |  |  | relative binding ratio (HLA-A*1101 [3]): 0.0039 ratio (IC50 of standard peptide / IC50 of test peptide) |
| FPYVSRLL (8-mer analog of the HER2/neu peptide starting at position 779; same label as the 10-mer in r56) [Her2/neu.779.F1, 8-mer] |  | 0.061 | 0.6 | 0.581 | 0.0069 | 0.172 |  |

| Binder | relative binding ratio (IC50 of standard peptide / IC50 of test peptide) (HLA-A*0301 [1]) | IC50 (HLA-B*0702) [µM] | IC50 (HLA-B*3501) [µM] | IC50 (HLA-B*5301) [µM] | IC50 (HLA-B*5101) [µM] | IC50 (HLA-B*5401) [µM] | other results |
| --- | --- | --- | --- | --- | --- | --- | --- |
| GMEHLREVR [HER2/neu peptide, position 346, 9 amino acids] | -0.0002 |  |  |  |  |  |  |
| GGAVENPEY [HER2/neu peptide, position 1188, 9 amino acids] | 0.0003 |  |  |  |  |  |  |
| GAMPNQAQMR [HER2/neu peptide, position 704, 10 amino acids] | -0.0002 |  |  |  |  |  |  |
| PLTCSPQPEY [HER2/neu A11 motif peptide, position 1130, 10 amino acids] |  |  |  |  |  |  | relative binding ratio (HLA-A*1101 [3]): 0.0002 ratio (IC50 of standard peptide / IC50 of test peptide) |
| GSGAFGTVYK [HER2/neu peptide, position 727, 10 amino acids] | 0.066 |  |  |  |  |  |  |
| VVFGILIKR (synthetic peptide; the 9-mer and the 10-mer carry the same source label Her2/neu.669) [Her2/neu.669 (AA 9)] |  |  |  |  |  |  | IC50 (HLA-A*3101): 0.013 µM; IC50 (HLA-A*0301 [4]): 0.1 µM; IC50 (HLA-A*6801): 0.004 µM |
| GLACHQLCAR [HER2/neu peptide, position 508, 10 amino acids] | 0.011 |  |  |  |  |  |  |
| FPLTPSGAM (9-mer analog of the HER2/neu peptide starting at position 698) [Her2/neu.698.F1] |  | 0.002 | 0.016 | 1.53 | 0.071 | 0.091 |  |
| HADGGKVPIK [HER2/neu peptide, position 878, 10 amino acids] | 0.0003 |  |  |  |  |  |  |
| FPNQAQMRI (9-mer analog of the HER2/neu peptide starting at position 706; same label as the 10-mer in r51) [Her2/neu.706.F1, 9-mer] |  | 0.068 | 0.108 | 0.018 |  | 0.0045 |  |
| HTVPWDQLFR (also called Her2/neu.478) [HER2/neu peptide, position 478, 10 amino acids] |  |  |  |  |  |  | relative binding ratio (HLA-A*1101 [2]): 0.072 ratio (IC50 of standard peptide / IC50 of test peptide) |
| FPLTSIISAVI (11-mer analog of the HER2/neu peptide starting at position 649) [Her2/neu.649.F1I11] |  |  | 0.096 | 0.066 | 0.0046 | 0.0022 |  |
| FPYVSRLLGI (10-mer analog of the HER2/neu peptide starting at position 779; same label as the 8-mer in r55) [Her2/neu.779.F1, 10-mer] |  | 0.112 | 3.6 | 0.358 | 0.0079 | 0.0091 |  |
| GLPREYVNAR [HER2/neu peptide, position 549, 10 amino acids] | 0.0002 |  |  |  |  |  |  |
| ILKETELRK [HER2/neu peptide, position 714, 9 amino acids] |  |  |  |  |  |  | relative binding ratio (HLA-A*1101 [2]): 0.0023 ratio (IC50 of standard peptide / IC50 of test peptide) |
| PTHDPSPLQR (also called HER2/neu 1102-1111) [HER2/neu A11 motif peptide, position 1102, 10 amino acids] |  |  |  |  |  |  | relative binding ratio (HLA-A*1101 [3]): 0.0001 ratio (IC50 of standard peptide / IC50 of test peptide) |
| FPLTSIISAV (10-mer analog of the HER2/neu peptide starting at position 649; same label as the 9-mer in r40) [Her2/neu.649.F1, 10-mer] |  | 0.22 | 0.3 | 2.91 | 0.063 | 0.0012 |  |
| FPLTSIISAI (10-mer analog of the HER2/neu peptide starting at position 649) [Her2/neu.649.F1I10] |  | 0.229 | 0.327 | 0.194 | 0.026 | 0.0033 |  |
| FPNQAQMRIL (10-mer analog of the HER2/neu peptide starting at position 706; same label as the 9-mer in r49) [Her2/neu.706.F1, 10-mer] |  | 0.081 | 0.2 | 0.443 | 0.458 | 0.031 |  |
| HLDMLRHLY (also called Her2/neu.42) [HER2/neu peptide, position 42, 9 amino acids] |  |  |  |  |  |  | relative binding ratio (HLA-A*1101 [2]): 0.0002 ratio (IC50 of standard peptide / IC50 of test peptide) |
| GLGISWLGLR [HER2/neu peptide, position 447, 10 amino acids] | 0.0037 |  |  |  |  |  |  |
| QVCTGTDMK (also called HER2/neu 24-32) [HER2/neu A11 motif peptide, position 24, 9 amino acids] |  |  |  |  |  |  | relative binding ratio (HLA-A*1101 [3]): 0.052 ratio (IC50 of standard peptide / IC50 of test peptide) |
| FPIKWMAI (8-mer analog of the HER2/neu peptide starting at position 884) [Her2/neu.884.F1I8] |  | 0.022 | 1.14 | 0.93 | 0.122 | 0.033 |  |
| FPIKWMAL (8-mer analog of the HER2/neu peptide starting at position 884; also called FPIKWMAL) [Her2/neu.884.F1] |  | 0.0006 | 0.248 | 0.547 | 0.306 | 0.04 |  |
| GAGGMVHHR [HER2/neu peptide, position 1038, 9 amino acids] | 0.0002 |  |  |  |  |  |  |
| HSCVDLDDK [HER2/neu peptide, position 632, 9 amino acids] |  |  |  |  |  |  | relative binding ratio (HLA-A*1101 [2]): 0.0007 ratio (IC50 of standard peptide / IC50 of test peptide) |
